Values quoted from earlier work in article PMC7590224.

Tested on: hLarp7 xRRM domain (human)
Conditions: No direct binding assays in this paper (only in vivo E. coli suppressor tRNA reporter assays, left out); conditions of the cited Kd values not given

## 7SK SL4 U311A
  Kd: 51 nM

## 7SK RNA stem-loop 4 (SL4)
  Kd: 129 nM
